Reference: paper PMC2806950

Biological target: T1, Ocr (overcome classical restriction) protein of bacteriophage T7, unmodified (bacteriophage T7), P03775
T1 chain: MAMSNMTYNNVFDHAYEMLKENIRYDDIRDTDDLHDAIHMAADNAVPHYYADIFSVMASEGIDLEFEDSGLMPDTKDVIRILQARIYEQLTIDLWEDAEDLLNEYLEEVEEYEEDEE
Assay: native gel or EMSA; blue native PAGE (NativePAGE Novex 4-16% Bis-Tris) of unmodified Ocr; also native 15% PAGE, non-denaturing reducing conditions
Details: remark: other sources report otherwise

B1: Ocr (overcome classical restriction) protein of bacteriophage T7, unmodified, P03775 1-117 (natural protein)
chain: MAMSNMTYNNVFDHAYEMLKENIRYDDIRDTDDLHDAIHMAADNAVPHYYADIFSVMASEGIDLEFEDSGLMPDTKDVIRILQARIYEQLTIDLWEDAEDLLNEYLEEVEEYEEDEE
In the case of B1, the stoichiometry N is reported as 4.
